Experiment [1] has as its target VPS4A/B (UniProt Q9UN37). The settings on record: parent: est. 100; read off a plot.
Experiment [2] deals with VPS4A/B (UniProt Q9UN37). The conditions noted are these: parent: est. 100; read off a plot. The source holds these as a separate data set.

We go through 1 substance from paper PMC6874086.

Read-outs that look alike come from different tables or passages of the source.

Chain of UniProt Q9UN37 (Q9UN37 whole entry): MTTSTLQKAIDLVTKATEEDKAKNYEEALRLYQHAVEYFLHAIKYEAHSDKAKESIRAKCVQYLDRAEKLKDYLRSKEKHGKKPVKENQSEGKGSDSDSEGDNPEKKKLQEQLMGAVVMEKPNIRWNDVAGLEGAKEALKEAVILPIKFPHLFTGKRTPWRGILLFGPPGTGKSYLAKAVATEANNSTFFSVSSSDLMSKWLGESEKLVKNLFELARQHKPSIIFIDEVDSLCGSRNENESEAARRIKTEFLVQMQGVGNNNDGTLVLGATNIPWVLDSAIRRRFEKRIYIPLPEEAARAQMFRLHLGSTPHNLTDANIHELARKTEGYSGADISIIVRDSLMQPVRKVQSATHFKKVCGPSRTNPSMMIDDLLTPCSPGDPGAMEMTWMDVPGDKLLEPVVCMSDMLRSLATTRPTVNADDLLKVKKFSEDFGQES

Take “LCMV Z WT with a C-terminal streptavidin binding peptide (SBP) tag (from UniProt P18541) K5R; K10R; K33R; K38R; K69R; K77R”: the figures for the percent of parent with VPS4A/B [1] and with VPS4A/B [2] were 24 % of WT and 23 % of WT, respectively.
